# Measured values reported in patent publication US20070131547A1.
# Molecular target: goxDp-Dzip2 (diaphorase derived from Gluconobacter oxydans, Dzip2 association site fused at the C-terminal side) (Gluconobacter oxydans)
# Assay: cell-based or functional assay
substance,measurement,value
"His-bmaEDH-Dzip1 (glutamic acid dehydrogenase derived from Burkholderia mallei, His tag, Dzip1 assoc (enzyme)",maximum electric power (glutamic acid fuel cell),106 µW/cm^2
same,shortcircuit current density (glutamic acid fuel cell),1230 µA/cm^2
